{"source": "paper PMC12102759", "about": "(2025)", "parents": {"B1": {"name": "CBL peptide 538-553 (E3 ubiquitin-protein ligase CBL), 16-mer library wild type / YES SH3 (YES1 SH3 domain, residues 90-152) (parent complex)", "chain 1": "TLRDLPPPPPPDRPYS", "chain 2": "not shown"}}}
{"variants_of": "B1", "assay": "proteomic peptide phage display deep mutational scan (ProP-PD DMS): M13 P8 16-mer library selected against immobilised GST-tagged bait for four days (rounds), NGS of the eluted pools per day and pseudo-replica; bait immobilised on MaxiSorp plates (10 µg), library pre-cleared on GST, 2 h binding at 4 °C, five washes; one round per day, days 1-4; value from days 2 and 3"}
{"variant": "chain 1 R3H", "screen value": "0.000385 average fractional NGS count over selection days 2 and 3 (reads of this peptide / all reads for the bait, averaged over …"}
{"variant": "chain 1 P7Q", "screen value": "0.000151 average fractional NGS count over selection days 2 and 3 (reads of this peptide / all reads for the bait, averaged over …"}
{"variant": "chain 1 R13M", "screen value": "0.000309 average fractional NGS count over selection days 2 and 3 (reads of this peptide / all reads for the bait, averaged over …"}
{"variant": "chain 1 P7F", "screen value": "0.000149 average fractional NGS count over selection days 2 and 3 (reads of this peptide / all reads for the bait, averaged over …"}
{"variant": "chain 1 R13Y", "screen value": "0.000779 average fractional NGS count over selection days 2 and 3 (reads of this peptide / all reads for the bait, averaged over …"}
{"variant": "chain 1 D4V", "screen value": "0.00269 average fractional NGS count over selection days 2 and 3 (reads of this peptide / all reads for the bait, averaged over …"}
{"variant": "chain 1 S16E", "screen value": "0.000858 average fractional NGS count over selection days 2 and 3 (reads of this peptide / all reads for the bait, averaged over …"}
{"variant": "chain 1 R13Q", "screen value": "0.000164 average fractional NGS count over selection days 2 and 3 (reads of this peptide / all reads for the bait, averaged over …"}
{"variant": "chain 1 L2Q", "screen value": "0.00095 average fractional NGS count over selection days 2 and 3 (reads of this peptide / all reads for the bait, averaged over …"}
{"variant": "chain 1 P14M", "screen value": "0.00532 average fractional NGS count over selection days 2 and 3 (reads of this peptide / all reads for the bait, averaged over …"}
{"variant": "chain 1 L2G", "screen value": "0.000674 average fractional NGS count over selection days 2 and 3 (reads of this peptide / all reads for the bait, averaged over …"}
{"variant": "chain 1 D12Y", "screen value": "0.00156 average fractional NGS count over selection days 2 and 3 (reads of this peptide / all reads for the bait, averaged over …"}
{"variant": "chain 1 S16V", "screen value": "0.00134 average fractional NGS count over selection days 2 and 3 (reads of this peptide / all reads for the bait, averaged over …"}
{"variant": "chain 1 D4L", "screen value": "0.000198 average fractional NGS count over selection days 2 and 3 (reads of this peptide / all reads for the bait, averaged over …"}
{"variant": "chain 1 D12I", "screen value": "0.00442 average fractional NGS count over selection days 2 and 3 (reads of this peptide / all reads for the bait, averaged over …"}
{"variant": "chain 1 P8L", "screen value": "0.000561 average fractional NGS count over selection days 2 and 3 (reads of this peptide / all reads for the bait, averaged over …"}
{"variant": "chain 1 S16G", "screen value": "0.000561 average fractional NGS count over selection days 2 and 3 (reads of this peptide / all reads for the bait, averaged over …"}
{"variant": "chain 1 P7S", "screen value": "0.00158 average fractional NGS count over selection days 2 and 3 (reads of this peptide / all reads for the bait, averaged over …"}
{"variant": "chain 1 P9T", "screen value": "0.000558 average fractional NGS count over selection days 2 and 3 (reads of this peptide / all reads for the bait, averaged over …"}
{"variant": "chain 1 D12N", "screen value": "0.000102 average fractional NGS count over selection days 2 and 3 (reads of this peptide / all reads for the bait, averaged over …"}
{"variant": "chain 1 L2K", "screen value": "0.0014 average fractional NGS count over selection days 2 and 3 (reads of this peptide / all reads for the bait, averaged over …"}
{"variant": "chain 1 S16F", "screen value": "0.00399 average fractional NGS count over selection days 2 and 3 (reads of this peptide / all reads for the bait, averaged over …"}
{"variant": "chain 1 P14T", "screen value": "0.0012 average fractional NGS count over selection days 2 and 3 (reads of this peptide / all reads for the bait, averaged over …"}
{"variant": "chain 1 S16R", "screen value": "0.000301 average fractional NGS count over selection days 2 and 3 (reads of this peptide / all reads for the bait, averaged over …"}
{"variant": "chain 1 R13N", "screen value": "0.000641 average fractional NGS count over selection days 2 and 3 (reads of this peptide / all reads for the bait, averaged over …"}
{"variant": "chain 1 P10T", "screen value": "0.00196 average fractional NGS count over selection days 2 and 3 (reads of this peptide / all reads for the bait, averaged over …"}
{"variant": "chain 1 P14Y", "screen value": "0.00118 average fractional NGS count over selection days 2 and 3 (reads of this peptide / all reads for the bait, averaged over …"}
{"variant": "chain 1 P7E", "screen value": "0.00022 average fractional NGS count over selection days 2 and 3 (reads of this peptide / all reads for the bait, averaged over …"}
{"variant": "chain 1 P11I", "screen value": "0.00017 average fractional NGS count over selection days 2 and 3 (reads of this peptide / all reads for the bait, averaged over …"}
{"variant": "chain 1 P11M", "screen value": "0.000374 average fractional NGS count over selection days 2 and 3 (reads of this peptide / all reads for the bait, averaged over …"}
{"variant": "chain 1 P14A", "screen value": "0.000568 average fractional NGS count over selection days 2 and 3 (reads of this peptide / all reads for the bait, averaged over …"}
{"variant": "chain 1 P14H", "screen value": "0.00144 average fractional NGS count over selection days 2 and 3 (reads of this peptide / all reads for the bait, averaged over …"}
{"variant": "chain 1 P8I", "screen value": "0.000407 average fractional NGS count over selection days 2 and 3 (reads of this peptide / all reads for the bait, averaged over …"}
{"variant": "chain 1 L5V", "screen value": "6.39e-05 average fractional NGS count over selection days 2 and 3 (reads of this peptide / all reads for the bait, averaged over …"}
{"variant": "chain 1 P11N", "screen value": "9.7e-05 average fractional NGS count over selection days 2 and 3 (reads of this peptide / all reads for the bait, averaged over …"}
{"variant": "chain 1 L2V", "screen value": "0.00022 average fractional NGS count over selection days 2 and 3 (reads of this peptide / all reads for the bait, averaged over …"}
{"variant": "chain 1 P9R", "screen value": "8.13e-05 average fractional NGS count over selection days 2 and 3 (reads of this peptide / all reads for the bait, averaged over …"}
{"variant": "chain 1 R13G", "screen value": "3.78e-05 average fractional NGS count over selection days 2 and 3 (reads of this peptide / all reads for the bait, averaged over …"}
{"variant": "chain 1 P11L", "screen value": "0.000447 average fractional NGS count over selection days 2 and 3 (reads of this peptide / all reads for the bait, averaged over …"}
{"variant": "chain 1 L5F", "screen value": "6.9e-05 average fractional NGS count over selection days 2 and 3 (reads of this peptide / all reads for the bait, averaged over …"}
{"variant": "chain 1 P10Q", "screen value": "0.000423 average fractional NGS count over selection days 2 and 3 (reads of this peptide / all reads for the bait, averaged over …"}
{"variant": "chain 1 P6H", "screen value": "0.000126 average fractional NGS count over selection days 2 and 3 (reads of this peptide / all reads for the bait, averaged over …"}
{"variant": "chain 1 P7L", "screen value": "0.000549 average fractional NGS count over selection days 2 and 3 (reads of this peptide / all reads for the bait, averaged over …"}
{"variant": "chain 1 R3V", "screen value": "0.000502 average fractional NGS count over selection days 2 and 3 (reads of this peptide / all reads for the bait, averaged over …"}
{"variant": "chain 1 D12P", "screen value": "0.00103 average fractional NGS count over selection days 2 and 3 (reads of this peptide / all reads for the bait, averaged over …"}
{"variant": "chain 1 Y15R", "screen value": "0.000143 average fractional NGS count over selection days 2 and 3 (reads of this peptide / all reads for the bait, averaged over …"}
{"variant": "chain 1 Y15L", "screen value": "0.00132 average fractional NGS count over selection days 2 and 3 (reads of this peptide / all reads for the bait, averaged over …"}
{"variant": "chain 1 P6S", "screen value": "0.000101 average fractional NGS count over selection days 2 and 3 (reads of this peptide / all reads for the bait, averaged over …"}
{"variant": "chain 1 D12K", "screen value": "0.00012 average fractional NGS count over selection days 2 and 3 (reads of this peptide / all reads for the bait, averaged over …"}
{"variant": "chain 1 L2D", "screen value": "0.000976 average fractional NGS count over selection days 2 and 3 (reads of this peptide / all reads for the bait, averaged over …"}
{"variant": "chain 1 R3W", "screen value": "0.00019 average fractional NGS count over selection days 2 and 3 (reads of this peptide / all reads for the bait, averaged over …"}
{"variant": "chain 1 P7H", "screen value": "7.35e-05 average fractional NGS count over selection days 2 and 3 (reads of this peptide / all reads for the bait, averaged over …"}
{"variant": "chain 1 D4I", "screen value": "0.00256 average fractional NGS count over selection days 2 and 3 (reads of this peptide / all reads for the bait, averaged over …"}
{"variant": "chain 1 S16Y", "screen value": "0.000405 average fractional NGS count over selection days 2 and 3 (reads of this peptide / all reads for the bait, averaged over …"}
{"variant": "chain 1 P7V", "screen value": "0.00339 average fractional NGS count over selection days 2 and 3 (reads of this peptide / all reads for the bait, averaged over …"}
{"variant": "chain 1 P9N", "screen value": "0.000239 average fractional NGS count over selection days 2 and 3 (reads of this peptide / all reads for the bait, averaged over …"}
{"variant": "chain 1 P14W", "screen value": "0.00023 average fractional NGS count over selection days 2 and 3 (reads of this peptide / all reads for the bait, averaged over …"}
{"variant": "chain 1 R3L", "screen value": "7.89e-05 average fractional NGS count over selection days 2 and 3 (reads of this peptide / all reads for the bait, averaged over …"}
{"variant": "chain 1 L2P", "screen value": "0.00136 average fractional NGS count over selection days 2 and 3 (reads of this peptide / all reads for the bait, averaged over …"}
{"variant": "chain 1 P8V", "screen value": "0.0024 average fractional NGS count over selection days 2 and 3 (reads of this peptide / all reads for the bait, averaged over …"}
{"variant": "chain 1 P9V", "screen value": "0.000276 average fractional NGS count over selection days 2 and 3 (reads of this peptide / all reads for the bait, averaged over …"}
{"variant": "chain 1 D12M", "screen value": "0.00124 average fractional NGS count over selection days 2 and 3 (reads of this peptide / all reads for the bait, averaged over …"}
{"variant": "chain 1 R13V", "screen value": "0.000492 average fractional NGS count over selection days 2 and 3 (reads of this peptide / all reads for the bait, averaged over …"}
{"variant": "chain 1 R3N", "screen value": "0.000239 average fractional NGS count over selection days 2 and 3 (reads of this peptide / all reads for the bait, averaged over …"}
{"variant": "chain 1 R3A", "screen value": "0.00047 average fractional NGS count over selection days 2 and 3 (reads of this peptide / all reads for the bait, averaged over …"}
{"variant": "chain 1 P8M", "screen value": "0.000558 average fractional NGS count over selection days 2 and 3 (reads of this peptide / all reads for the bait, averaged over …"}
{"variant": "chain 1 D4K", "screen value": "0.000375 average fractional NGS count over selection days 2 and 3 (reads of this peptide / all reads for the bait, averaged over …"}
{"variant": "chain 1 P11F", "screen value": "0.00176 average fractional NGS count over selection days 2 and 3 (reads of this peptide / all reads for the bait, averaged over …"}
{"variant": "chain 1 P14G", "screen value": "0.000593 average fractional NGS count over selection days 2 and 3 (reads of this peptide / all reads for the bait, averaged over …"}
{"variant": "chain 1 P7I", "screen value": "0.00214 average fractional NGS count over selection days 2 and 3 (reads of this peptide / all reads for the bait, averaged over …"}
{"variant": "chain 1 R13A", "screen value": "0.00128 average fractional NGS count over selection days 2 and 3 (reads of this peptide / all reads for the bait, averaged over …"}
{"variant": "chain 1 Y15I", "screen value": "0.000521 average fractional NGS count over selection days 2 and 3 (reads of this peptide / all reads for the bait, averaged over …"}
{"variant": "chain 1 P11V", "screen value": "0.000274 average fractional NGS count over selection days 2 and 3 (reads of this peptide / all reads for the bait, averaged over …"}
{"variant": "chain 1 P11H", "screen value": "0.000426 average fractional NGS count over selection days 2 and 3 (reads of this peptide / all reads for the bait, averaged over …"}
{"variant": "chain 1 P10E", "screen value": "0.00012 average fractional NGS count over selection days 2 and 3 (reads of this peptide / all reads for the bait, averaged over …"}
